Assay [1] concerns the target T1, Tau 407-421 peptide (Truncated Asp421 Epitope of Tau).
T1 construct: Immobilized in the ELISA, analyte in the Biacore analysis
T1 peptide: HLSNVSSTGSIDMVD
Put plainly: Biacore (SPR), peptide as analyte. A general note: In SPR one partner is held on a chip, and binding of the other changes the refractive index at the surface.

The target of assay [2] is T2, Tau 407-423 peptide (non-truncated Asp421 epitope).
T2 construct: Immobilized in the ELISA, analyte in the Biacore analysis
T2 peptide: HLSNVSSTGSIDMVDSP
Nature of the assay: Biacore (SPR), peptide as analyte.

Assay [3] concerns the target T2, Tau 407-423 peptide (non-truncated …). Nature of the assay: ELISA, immobilized peptide. The source says:
(§1) The data thus confirms the ability of Antibodies 1G11A10, 5G2A3 and 5G2G6 to immunospecifically bind to the Truncated Asp421 Epitope of Tau.
(ELISA stands for enzyme-linked immunosorbent assay.)

The target in assay [4] is T1, Tau 407-421 peptide (Truncated Asp421 …). Put plainly: ELISA.
From the text: as §1

The target of assay [5] is T2, Tau 407-423 peptide (non-truncated …). Put plainly: Biacore, peptide as analyte.

In general, Kd refers to the concentration at which binding is half-saturated.

B1: Antibody 5G2A3 (antibody, V domains shown)
VH: EVKLVESGGGLVKPGGSLTLSCAASGFTFSSYAMSWVRQTPEKSLEWVASISSGGNTFYPDTVKGRFTISRDNARNILYLQMSGLRSEDTAIYYCARRGDPNMITTLFGYWGQGTLVTISA
VL: DVLMTQTPLSLPVSLGDQASISCRSSQSILHRNGNTYLDWFLLKPGQSPKLLIYKVSNRFSGVPDRFSGSGSGTDFTLKISRVEAEDLGVYYCFQGSHVPWTFGGGTKLEIK
notes: Hybridoma-derived monoclonal antibody; also called 5G2A3/5G2G6
As for B1, the results for the Kd in assay [1] and in assay [2] were 7.46 nM and 5070 nM, respectively.

B2: Antibody 1G10D2 (antibody, V domains shown)
VH: EVKLVESGGDLVTPGGSLKVSCAASGLTFSDSAMSWVRLTPEKRLEWVASISTGGATYYPDGLKGRFTISRDDARNILFLQMNSLRSEDTAMYYCTRRGVSSGNLFTYWGQGTLVTVSA
VL: DVLMTQTPLSLPVSLGDQASISCRSSQSILNSNGNTYLEWYLQKPGQSPKLLIYKVSNRFSGVPDRFSGSGSGTDFTLKISRVEAEDLGVYYCFQGSHVPWTFGGGTKLEIK
As for B2, the binding result is “no binding” in assay [3] and “binds” in assay [4].

B3: Antibody 5B3C11 (antibody, V domains shown)
VH: EVQLVESGGGLVKPGGSLKLSCAASGFTFSNYALSWVRQTPEKRLEWVASISSGGNTYYPDSVKGRFTISRDNARNILYLQMSSLRSEDTAMFYCTSRGDTTLITTLFTYWGQGTLVTVSA
VL: DVLMTQTPLSLPVSLGDQASISCRSNQSILHSNGNTYLDWYLQKPGQSPKLLIYKVSNRFSGVPDRFSGSGSGTDFTLRISRVEAEDLGVYYCFQGSHIPWTFGGGTKLEIK
notes: Tested as hybridoma culture supernatant
In the case of B3, the binding result in assay [3] is “no binding”.

B4: Antibody 1G11A10 (antibody, V domains shown)
VH: EVKLVESGGGLMKPGGSLKLSCAASGFTFSSYAMSWVRQSPEKRLEWVASISSGGQTYSPDSVKGRFTISRDNARNILYLQMRNLRSEDTAMYYCASRGDPTMTATLFVYWGQGTLVTVS
VL: DVLMTQTPLSLPVSLGDQASISCRSSQSIINSNGNTYLEWYLQKPGQSPKLLIYKVSNRFSGVPDRFSGSGSGTDFTLKISRVETEDLGIYYCFQGSHVPWTFGGGTKLEIK
notes: Hybridoma-derived monoclonal antibody
For B4, the binding result in assay [5] is recorded as “no binding”. The molecule further came in with a dissociation constant Kd in assay [1] of 1070 nM.
